{"source": "paper PMC3081175", "origin": "cited, not measured here", "biological_target": "c-Met (Homo sapiens) (UniProt P08581)", "sequence (P08581 25-932)": "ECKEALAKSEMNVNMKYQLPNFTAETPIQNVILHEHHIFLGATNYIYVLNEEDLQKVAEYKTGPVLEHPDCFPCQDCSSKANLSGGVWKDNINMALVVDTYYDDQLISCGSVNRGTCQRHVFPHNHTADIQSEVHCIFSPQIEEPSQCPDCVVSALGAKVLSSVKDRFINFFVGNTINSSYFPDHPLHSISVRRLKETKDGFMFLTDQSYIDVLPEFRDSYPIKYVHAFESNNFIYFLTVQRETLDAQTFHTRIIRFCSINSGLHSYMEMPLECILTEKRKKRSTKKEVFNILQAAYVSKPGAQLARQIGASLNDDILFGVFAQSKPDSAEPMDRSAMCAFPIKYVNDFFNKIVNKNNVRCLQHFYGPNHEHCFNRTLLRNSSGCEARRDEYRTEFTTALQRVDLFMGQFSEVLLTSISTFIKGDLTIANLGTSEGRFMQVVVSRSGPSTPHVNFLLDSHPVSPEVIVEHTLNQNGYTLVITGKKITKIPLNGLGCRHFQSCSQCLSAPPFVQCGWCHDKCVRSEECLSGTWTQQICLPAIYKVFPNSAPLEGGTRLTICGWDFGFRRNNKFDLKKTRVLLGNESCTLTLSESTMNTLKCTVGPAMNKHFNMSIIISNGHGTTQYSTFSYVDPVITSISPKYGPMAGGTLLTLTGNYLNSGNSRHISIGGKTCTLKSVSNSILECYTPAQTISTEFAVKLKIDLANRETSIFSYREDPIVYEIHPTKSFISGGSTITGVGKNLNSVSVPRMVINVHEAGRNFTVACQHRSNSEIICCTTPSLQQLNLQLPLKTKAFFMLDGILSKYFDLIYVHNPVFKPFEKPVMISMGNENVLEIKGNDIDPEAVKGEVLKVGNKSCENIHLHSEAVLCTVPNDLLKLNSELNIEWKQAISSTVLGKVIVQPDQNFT"}
{"substance": "HGF (from UniProt P14210)", "values": [{"measurement": "Kd", "value": 0.03, "unit": "nM"}]}
